From the Immune Epitope Database (IEDB) come the findings set out here.

Usually IC50 stands for the concentration at which inhibition is half-maximal. Lower therefore signals inhibition by little substance. By Kd is commonly meant the constant that tells how readily two partners part at equilibrium.

Bounds are passed on as bounds.

Experiment [1] deals with HLA-A*01:01. The experiment can be described thus: IEDB peptide-MHC binding, purified MHC/competitive/fluorescence; ≥ and ≤ were set here for values at or beyond the usual limits of such assays. The settings on record: source organism: Homo sapiens.
The target of experiment [2] is HLA-A*02:01. The experiment is described as above. The settings on record: source organism: Homo sapiens.
In experiment [3] the target is HLA-A*03:01. The description is as above. Particulars: source organism: Homo sapiens.
The target of experiment [4] is HLA-A*11:01. Described as above. The settings on record: source organism: Homo sapiens.
The target in experiment [5] is HLA-A*24:02. The experiment is described as above. Particulars: source organism: Homo sapiens.
For experiment [6], the target named is HLA-A*25:01. The description is as above. Particulars: source organism: Homo sapiens.
Experiment [7] addresses HLA-A*29:02. The description is as above. Particulars: source organism: Homo sapiens.
Experiment [8] addresses HLA-A*31:01. Described as above. The settings on record: source organism: Homo sapiens.
Experiment [9] deals with HLA-A*68:02. Described as above. The settings on record: source organism: Homo sapiens.
Experiment [10] deals with HLA-B*07:02. Described as above. The settings on record: source organism: Homo sapiens.
The target in experiment [11] is HLA-B*08:01. The description is as above. The settings on record: source organism: Homo sapiens.
Experiment [12] has as its target HLA-B*14:02. The description is as above. Particulars: source organism: Homo sapiens.
Experiment [13] addresses HLA-B*18:01. Described as above. The settings on record: source organism: Homo sapiens.
The target in experiment [14] is HLA-B*35:01. The experiment is described as above. The settings on record: source organism: Homo sapiens.
The target of experiment [15] is HLA-B*37:01. The description is as above. The settings on record: source organism: Homo sapiens.
Experiment [16] addresses HLA-B*40:02. Described as above. Particulars: source organism: Homo sapiens.
Experiment [17] addresses HLA-B*44:03. Described as above. The settings on record: source organism: Homo sapiens.
Experiment [18] deals with HLA-B*51:01. The description is as above. Particulars: source organism: Homo sapiens.
Experiment [19] concerns the target HLA-B*53:01. The experiment is described as above. Particulars: source organism: Homo sapiens.
Experiment [20] concerns the target HLA-B*58:01. The description is as above. The settings on record: source organism: Homo sapiens.
Experiment [21] addresses HLA-C*14:02. The experiment can be described thus: IEDB peptide-MHC binding, purified MHC/direct/fluorescence; filed as Kd, often an IC50 or EC50 that approximates it; ≥ and ≤ were set here for values at or beyond the usual limits of such assays. Particulars: source organism: Homo sapiens.
Experiment [22] deals with HLA-A*69:01. The description is as above. The settings on record: source organism: Mycobacterium tuberculosis.
The target in experiment [23] is HLA-C*08:02. Described as above.
The target in experiment [24] is HLA-C*15:02. The experiment is described as above. Particulars: source organism: Corynebacterium glutamicum ATCC 13032.
Experiment [25] deals with HLA-A*68:23. The experiment can be described thus: IEDB peptide-MHC binding, purified MHC/competitive/fluorescence; filed as Kd, often an IC50 or EC50 that approximates it; ≥ and ≤ were set here for values at or beyond the usual limits of such assays. Particulars: source organism: Corynebacterium glutamicum ATCC 13032.
The target in experiment [26] is HLA-B*15:42. The experiment is described as above.
Experiment [27] has as its target HLA-B*45:06. The description is as above.
The target of experiment [28] is HLA-B*83:01. Described as above.
In experiment [29] the target is HLA-C*06:02. Described as above. Particulars: source organism: Corynebacterium glutamicum ATCC 13032.
The target of experiment [30] is HLA-A*02:03. Kind of experiment: IEDB peptide-MHC binding, purified MHC/direct/fluorescence; filed as Kd, often an IC50 or EC50 that approximates it; ≥ and ≤ were set here for values at or beyond the usual limits of such assays. The settings on record: source organism: Mycobacterium tuberculosis str. Haarlem.
For experiment [31], the target named is HLA-C*05:01. Described as above. The settings on record: source organism: Mycobacterium tuberculosis variant bovis BCG str. Pasteur 1173P2.
Experiment [32] concerns the target HLA-A*32:15. The experiment can be described thus: IEDB peptide-MHC binding, purified MHC/competitive/fluorescence; filed as Kd, often an IC50 or EC50 that approximates it; ≥ and ≤ were set here for values at or beyond the usual limits of such assays. The settings on record: source organism: Mycobacterium tuberculosis variant bovis BCG str. Pasteur 1173P2.
Experiment [33] has as its target HLA-B*46:01. The experiment is described as above. The settings on record: source organism: Mycobacterium tuberculosis variant bovis BCG str. Pasteur 1173P2.
The target in experiment [34] is HLA-C*14:02. Described as above.
Experiment [35] concerns the target HLA-A*01:01. The experiment is described as above. Particulars: source organism: Rattus norvegicus.
The target of experiment [36] is HLA-A*29:02. Described as above. The settings on record: source organism: Rattus norvegicus.
Experiment [37] concerns the target HLA-A*80:01. The experiment is described as above. The settings on record: source organism: Rattus norvegicus.
Experiment [38] deals with HLA-C*04:01. The experiment is described as above. Particulars: source organism: Rattus norvegicus.
Setting [39] is: source organism: Corynebacterium glutamicum ATCC 13032.
Where [40] appears, read: source organism: Mycobacterium tuberculosis variant bovis BCG str. Pasteur 1173P2.
[41] abbreviates: source organism: Rattus norvegicus.

On to FPHTELANL, for which the IC50 in [1], in experiment [2], in experiment [3], in experiment [4], in [5] and in [6] was at least 20000 nM throughout. Further, the IC50 in experiment [7] is at least 20000 nM; in experiment [8], at least 20000 nM; in experiment [9], 224 nM; in experiment [10], 112 nM; in experiment [11], 1080 nM; in experiment [12] it was at least 20000 nM. Also, the IC50 in [13] is 422 nM; in experiment [14], 8.5 nM; in [15], at least 20000 nM; in experiment [16] it was 734 nM; in [17], at least 20000 nM; in experiment [18] it was 685 nM. In addition, the figures for the IC50 in experiment [19] and in [20] were 221 nM and at least 20000 nM, respectively. Besides, the Kd in experiment [21] came out at 792 nM.

Turning to RIFPATHYV, the Kd in [22] was 18.8 nM; in experiment [23] (setting [39]) it was at least 20000 nM; in experiment [24] it was 17 nM; in experiment [25], 197 nM; in experiment [26] (setting [39]), at least 5000 nM; in experiment [27] (setting [39]) it was at least 5000 nM. In addition, the Kd is at least 5000 nM in experiment [28] (setting [39]) and 35.7 nM in experiment [29].

As for FMFDYIPPV, the Kd was at most 1 nM in experiment [30]; 1.3 nM in experiment [22]; at least 20000 nM in [31]; 368 nM in [23] (setting [40]); 203 nM in experiment [32]; 3860 nM in experiment [26] (setting [40]). The Kd is at least 5000 nM in [27] (setting [40]), 10.1 nM in experiment [33], at least 5000 nM in experiment [28] (setting [40]) and 5.7 nM in [34] (setting [40]).

In the case of YYRYPTGESY, the Kd in [35] is at least 20000 nM; in experiment [36], at most 0.1 nM; in experiment [37], 1460 nM; in experiment [26] (setting [41]) it was at least 5000 nM; in [27] (setting [41]) it was at least 5000 nM; in experiment [28] (setting [41]), at least 5000 nM. For the same sequence, the dissociation constant (Kd) was at least 5000 nM in experiment [38] and at most 0.1 nM in experiment [34] (setting [41]).
